Measured values: US20250136720A1 (Boehringer Ingelheim, published 2025)
Numbering of substitutions follows the chain as printed.

B1: CD137 #3 (B21.V22) + FAP #3 (A11 VK7/VH1) (bispecific antibody, human IgG1, kappa, L234A L235A)
heavy: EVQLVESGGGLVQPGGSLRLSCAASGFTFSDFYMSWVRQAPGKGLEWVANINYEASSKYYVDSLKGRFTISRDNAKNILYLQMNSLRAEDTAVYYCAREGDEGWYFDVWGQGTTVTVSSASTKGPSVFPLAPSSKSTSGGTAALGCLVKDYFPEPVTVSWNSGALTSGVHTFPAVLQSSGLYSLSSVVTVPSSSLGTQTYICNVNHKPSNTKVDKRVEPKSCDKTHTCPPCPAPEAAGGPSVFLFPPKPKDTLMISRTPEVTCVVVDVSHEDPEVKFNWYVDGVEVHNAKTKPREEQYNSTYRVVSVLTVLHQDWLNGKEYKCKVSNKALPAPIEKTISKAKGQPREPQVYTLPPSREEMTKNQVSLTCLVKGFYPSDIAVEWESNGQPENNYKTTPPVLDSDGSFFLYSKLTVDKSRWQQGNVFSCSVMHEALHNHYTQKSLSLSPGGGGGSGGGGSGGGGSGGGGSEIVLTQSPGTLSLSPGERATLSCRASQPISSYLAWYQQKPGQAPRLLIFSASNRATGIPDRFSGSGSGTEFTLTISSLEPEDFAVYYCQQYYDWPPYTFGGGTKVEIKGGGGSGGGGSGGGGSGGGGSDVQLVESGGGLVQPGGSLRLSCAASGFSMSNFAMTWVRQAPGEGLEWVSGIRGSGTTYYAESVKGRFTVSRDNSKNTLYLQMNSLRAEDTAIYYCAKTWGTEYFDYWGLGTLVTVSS
light: DIQMTQSPSSLSASVGDRVTITCRASQSVSSALAWYQQKPGKAPKLLIYAASYRQSGVPSRFSGSGSGTDFTLTISSLQPEDFAVYYCQQHYSNPWTFGQGTKLEIKRTVAAPSVFIFPPSDEQLKSGTASVVCLLNNFYPREAKVQWKVDNALQSGNSQESVTEQDSKDSTYSLSSTLTLSKADYEKHKVYACEVTHQGLSSPVTKSFNRGEC
B2: CD137 #4 (B21.V25) + FAP #2 (A11 VK3/VH3) (bispecific antibody, human IgG1, kappa, L234A L235A)
heavy: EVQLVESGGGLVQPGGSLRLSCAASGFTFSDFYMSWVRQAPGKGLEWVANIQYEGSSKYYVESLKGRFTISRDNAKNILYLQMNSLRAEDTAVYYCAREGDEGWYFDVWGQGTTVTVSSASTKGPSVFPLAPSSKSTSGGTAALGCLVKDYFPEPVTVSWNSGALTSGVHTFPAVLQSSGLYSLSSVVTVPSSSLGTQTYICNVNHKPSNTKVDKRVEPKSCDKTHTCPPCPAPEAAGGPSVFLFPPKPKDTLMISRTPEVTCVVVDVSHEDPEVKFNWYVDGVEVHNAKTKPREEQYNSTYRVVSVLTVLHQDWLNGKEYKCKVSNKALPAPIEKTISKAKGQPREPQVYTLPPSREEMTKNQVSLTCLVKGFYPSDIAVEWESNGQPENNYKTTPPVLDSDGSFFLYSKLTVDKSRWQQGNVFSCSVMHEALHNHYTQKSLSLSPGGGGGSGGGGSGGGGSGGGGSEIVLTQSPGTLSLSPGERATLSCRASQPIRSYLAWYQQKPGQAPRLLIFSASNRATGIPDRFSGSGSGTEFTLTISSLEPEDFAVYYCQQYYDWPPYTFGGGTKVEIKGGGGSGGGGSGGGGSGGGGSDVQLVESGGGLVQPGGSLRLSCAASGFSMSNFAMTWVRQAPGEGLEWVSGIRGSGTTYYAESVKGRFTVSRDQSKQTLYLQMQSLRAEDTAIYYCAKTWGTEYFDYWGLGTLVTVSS
light: B1 light with V29I, S31T, L33V, R54L, Q55Y
B3: CD137 #4 (B21.V25) + FAP #3 (A11 VK7/VH1) (bispecific antibody, human IgG1, kappa, L234A L235A)
heavy: not shown
light: B1 light with V29I, S31T, L33V, R54L, Q55Y
B4: CD137 #5 (B21.V29) + FAP #5 (C3 VK1/VH4) (bispecific antibody, human IgG1, kappa, L234A L235A)
heavy: not shown
light: B1 light with V29I, S31T, Q55Y
B5: CD137 #5 (B21.V29) + FAP #2 (A11 VK3/VH3) (bispecific antibody, human IgG1, kappa, L234A L235A)
heavy: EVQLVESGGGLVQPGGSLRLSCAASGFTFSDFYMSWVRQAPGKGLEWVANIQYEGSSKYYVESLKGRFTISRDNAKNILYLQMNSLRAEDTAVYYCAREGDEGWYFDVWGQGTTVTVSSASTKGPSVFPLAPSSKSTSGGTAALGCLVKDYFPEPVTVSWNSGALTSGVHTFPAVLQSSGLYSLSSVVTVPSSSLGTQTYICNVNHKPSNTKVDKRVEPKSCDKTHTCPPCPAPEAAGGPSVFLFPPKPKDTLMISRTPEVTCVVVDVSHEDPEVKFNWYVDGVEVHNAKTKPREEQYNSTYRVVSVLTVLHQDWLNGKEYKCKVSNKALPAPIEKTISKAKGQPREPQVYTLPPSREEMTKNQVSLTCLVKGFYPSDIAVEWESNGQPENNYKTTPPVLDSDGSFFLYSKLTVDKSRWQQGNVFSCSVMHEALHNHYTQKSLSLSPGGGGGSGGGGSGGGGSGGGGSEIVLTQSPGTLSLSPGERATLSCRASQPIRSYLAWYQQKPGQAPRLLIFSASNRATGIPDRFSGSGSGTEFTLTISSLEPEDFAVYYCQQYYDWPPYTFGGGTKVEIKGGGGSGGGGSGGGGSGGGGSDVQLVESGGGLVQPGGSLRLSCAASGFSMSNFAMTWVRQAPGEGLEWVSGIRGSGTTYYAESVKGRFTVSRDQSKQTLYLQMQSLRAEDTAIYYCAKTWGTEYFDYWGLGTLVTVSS
light: B1 light with V29I, S31T, Q55Y
B6: CD137 #5 (B21.V29) + FAP #3 (A11 VK7/VH1) (bispecific antibody, human IgG1, kappa, L234A L235A)
heavy: not shown
light: B1 light with V29I, S31T, Q55Y
B7: CD137 #6 (B21.V37) + FAP #3 (A11 VK7/VH1) (bispecific antibody, human IgG1, kappa, L234A L235A)
heavy: not shown
light: B1 light with V29I, S31T, Q55Y
B8: CD137 #6 (B21.V37) + FAP #5 (C3 VK1/VH4) (bispecific antibody, human IgG1, kappa, L234A L235A)
heavy: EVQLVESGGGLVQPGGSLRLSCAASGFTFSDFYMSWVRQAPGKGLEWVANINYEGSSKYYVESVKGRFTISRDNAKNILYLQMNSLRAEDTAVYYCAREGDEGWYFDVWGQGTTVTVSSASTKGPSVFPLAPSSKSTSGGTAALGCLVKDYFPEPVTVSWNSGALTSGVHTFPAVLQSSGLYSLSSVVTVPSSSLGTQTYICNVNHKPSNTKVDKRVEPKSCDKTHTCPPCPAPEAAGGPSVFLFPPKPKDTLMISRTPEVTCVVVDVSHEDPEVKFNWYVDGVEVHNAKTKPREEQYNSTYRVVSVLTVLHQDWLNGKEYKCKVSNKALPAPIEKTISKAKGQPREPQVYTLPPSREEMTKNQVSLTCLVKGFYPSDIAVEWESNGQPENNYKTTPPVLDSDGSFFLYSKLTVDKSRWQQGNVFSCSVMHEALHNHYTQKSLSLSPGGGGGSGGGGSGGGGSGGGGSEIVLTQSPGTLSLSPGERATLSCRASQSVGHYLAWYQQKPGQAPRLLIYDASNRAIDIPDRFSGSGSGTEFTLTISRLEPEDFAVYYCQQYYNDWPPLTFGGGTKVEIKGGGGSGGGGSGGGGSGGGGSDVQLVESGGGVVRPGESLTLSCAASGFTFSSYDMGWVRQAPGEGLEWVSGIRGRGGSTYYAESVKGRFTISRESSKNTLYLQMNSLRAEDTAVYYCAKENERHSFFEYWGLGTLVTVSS
light: B1 light with V29I, S31T, Q55Y
B9: CD137 #6 (B21.V37) + FAP #2 (A11 VK3/VH3) (bispecific antibody, human IgG1, kappa, L234A L235A)
heavy: not shown
light: B1 light with V29I, S31T, Q55Y
B10: CD137 #8 (A49.V43) + FAP #5 (C3 VK1/VH4) (bispecific antibody, human IgG1, kappa, L234A L235A)
heavy: not shown
light: EIVMTQSPLSLPVTPGEPASISCRSSQSLLYSNGYNHLDWYLQKPGQSPQLLIYLGSNRASGVPDRFSGSGSGTDFTLKISRVEAEDVGVYYCMQALQTPPTFGQGTKLEIKRTVAAPSVFIFPPSDEQLKSGTASVVCLLNNFYPREAKVQWKVDNALQSGNSQESVTEQDSKDSTYSLSSTLTLSKADYEKHKVYACEVTHQGLSSPVTKSFNRGEC
B11: CD137 #8 (A49.V43) + FAP #2 (A11 VK3/VH3) (bispecific antibody, human IgG1, kappa, L234A L235A)
heavy: not shown
light: B10 light
B12: CD137 #3 (B21.V22) + FAP #2 (A11 VK3/VH3) (bispecific antibody, human IgG1, kappa, L234A L235A)
heavy: not shown
light: B1 light
B13: CD137 #3 (B21.V22) + FAP #5 (C3 VK1/VH4) (bispecific antibody, human IgG1, kappa, L234A L235A)
heavy: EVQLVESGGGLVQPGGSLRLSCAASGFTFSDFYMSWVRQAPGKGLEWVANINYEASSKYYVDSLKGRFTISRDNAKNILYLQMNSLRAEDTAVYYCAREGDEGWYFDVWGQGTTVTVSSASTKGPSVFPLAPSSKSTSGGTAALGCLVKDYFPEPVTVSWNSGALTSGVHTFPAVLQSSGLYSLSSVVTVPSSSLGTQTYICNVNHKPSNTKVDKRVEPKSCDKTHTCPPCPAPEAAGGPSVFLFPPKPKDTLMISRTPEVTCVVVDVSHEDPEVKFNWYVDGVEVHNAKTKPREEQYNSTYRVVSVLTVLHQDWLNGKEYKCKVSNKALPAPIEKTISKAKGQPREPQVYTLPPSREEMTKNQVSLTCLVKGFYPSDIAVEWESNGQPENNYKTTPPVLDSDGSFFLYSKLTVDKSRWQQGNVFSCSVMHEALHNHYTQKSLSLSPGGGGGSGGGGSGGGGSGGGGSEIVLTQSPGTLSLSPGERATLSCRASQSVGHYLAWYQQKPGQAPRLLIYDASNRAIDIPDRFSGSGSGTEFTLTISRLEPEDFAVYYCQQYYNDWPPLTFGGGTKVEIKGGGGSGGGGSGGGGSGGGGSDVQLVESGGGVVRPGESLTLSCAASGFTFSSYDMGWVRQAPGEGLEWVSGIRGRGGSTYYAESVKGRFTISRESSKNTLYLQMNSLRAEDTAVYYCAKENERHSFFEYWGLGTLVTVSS
light: B1 light
B14: CD137 #10 (A49.V48) + FAP #3 (A11 VK7/VH1) (bispecific antibody, human IgG1, kappa, L234A L235A)
heavy: not shown
light: B10 light with N33Q, L55G
B15: CD137 #9 (A49.V47) + FAP #3 (A11 VK7/VH1) (bispecific antibody, human IgG1, kappa, L234A L235A)
heavy: not shown
light: B10 light with N33Q, L55G
B16: CD137 #10 (A49.V48) + FAP #5 (C3 VK1/VH4) (bispecific antibody, human IgG1, kappa, L234A L235A)
heavy: not shown
light: B10 light with N33Q, L55G
B17: CD137 #10 (A49.V48) + FAP #2 (A11 VK3/VH3) (bispecific antibody, human IgG1, kappa, L234A L235A)
heavy: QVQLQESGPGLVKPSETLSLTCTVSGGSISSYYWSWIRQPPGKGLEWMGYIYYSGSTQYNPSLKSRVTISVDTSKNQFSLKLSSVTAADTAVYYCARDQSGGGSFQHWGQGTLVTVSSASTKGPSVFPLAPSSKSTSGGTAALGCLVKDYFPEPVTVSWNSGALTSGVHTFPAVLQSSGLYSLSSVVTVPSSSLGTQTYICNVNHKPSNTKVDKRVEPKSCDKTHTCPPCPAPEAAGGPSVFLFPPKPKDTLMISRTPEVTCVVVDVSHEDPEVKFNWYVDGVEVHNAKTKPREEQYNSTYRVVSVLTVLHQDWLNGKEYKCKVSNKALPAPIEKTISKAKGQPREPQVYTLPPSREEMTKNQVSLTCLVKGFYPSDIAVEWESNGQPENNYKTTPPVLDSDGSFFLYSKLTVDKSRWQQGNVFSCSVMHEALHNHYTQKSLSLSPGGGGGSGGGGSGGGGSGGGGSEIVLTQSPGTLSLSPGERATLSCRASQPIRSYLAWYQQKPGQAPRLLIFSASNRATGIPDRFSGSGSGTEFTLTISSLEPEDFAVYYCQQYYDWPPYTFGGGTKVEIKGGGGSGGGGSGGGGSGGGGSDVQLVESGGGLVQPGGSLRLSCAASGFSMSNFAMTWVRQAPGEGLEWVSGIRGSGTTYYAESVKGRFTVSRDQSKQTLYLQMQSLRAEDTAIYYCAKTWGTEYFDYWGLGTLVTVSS
light: B10 light with N33Q, L55G
B18: CD137 #9 (A49.V47) + FAP #5 (C3 VK1/VH4) (bispecific antibody, human IgG1, kappa, L234A L235A)
heavy: not shown
light: B10 light with N33Q, L55G
B19: CD137 #9 (A49.V47) + FAP #2 (A11 VK3/VH3) (bispecific antibody, human IgG1, kappa, L234A L235A)
heavy: not shown
light: B10 light with N33Q, L55G
B20: CD137 #2 (B21.V16) + FAP #3 (A11 VK7/VH1) (bispecific antibody, human IgG1, kappa, L234A L235A)
heavy: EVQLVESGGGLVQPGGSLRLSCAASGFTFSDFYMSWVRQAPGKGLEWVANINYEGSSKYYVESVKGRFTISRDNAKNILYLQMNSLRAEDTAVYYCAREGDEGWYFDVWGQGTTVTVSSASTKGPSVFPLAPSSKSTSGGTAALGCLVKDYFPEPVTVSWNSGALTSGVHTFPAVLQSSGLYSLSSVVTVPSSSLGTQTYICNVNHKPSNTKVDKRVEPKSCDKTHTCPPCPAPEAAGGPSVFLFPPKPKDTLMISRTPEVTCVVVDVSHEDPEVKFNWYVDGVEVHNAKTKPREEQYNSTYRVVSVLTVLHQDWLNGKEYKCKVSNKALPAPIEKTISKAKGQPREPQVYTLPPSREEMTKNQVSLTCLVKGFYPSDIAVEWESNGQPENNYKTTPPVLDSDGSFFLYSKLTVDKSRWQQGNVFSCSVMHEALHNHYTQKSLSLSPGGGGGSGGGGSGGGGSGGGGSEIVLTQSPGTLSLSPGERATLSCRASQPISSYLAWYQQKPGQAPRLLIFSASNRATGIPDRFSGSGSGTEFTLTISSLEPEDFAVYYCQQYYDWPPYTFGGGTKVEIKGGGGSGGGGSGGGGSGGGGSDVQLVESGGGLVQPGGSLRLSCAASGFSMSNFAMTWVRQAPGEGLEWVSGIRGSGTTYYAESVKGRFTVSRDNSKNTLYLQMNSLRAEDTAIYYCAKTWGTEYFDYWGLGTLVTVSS
light: B1 light with R24K, S28D, V29I, L33V, A50S, Y53S, Q55Y, S56T

Each binder was assayed against T1, Human CD137 on Jurkat cells (human, UniProt Q07011 24-255) (assay: cell-based or functional assay).
Set-up: IC90; Jurkat-CD137 NFkB-luciferase, HT1080-FAP co-culture / EC90; Jurkat-CD137 NFkB-luciferase, HT1080-FAP co-culture: unit not given beside the values

EC90; Jurkat-CD137 NFkB-luciferase, HT1080-FAP co-culture	IC90; Jurkat-CD137 NFkB-luciferase, HT1080-FAP co-culture	Total AUC; Jurkat-CD137 NFkB-luciferase, HT1080-FAP co-culture	Binder
2.41	144	1.9e+06	B1
0.65	46.9	3.3e+06	B2
2.55	492	2.5e+06	B3
0.8	35.7	3.2e+06	B4
0.78	62.8	2.9e+06	B5
0.52	51.9	2.9e+06	B6
2.34	258	3.5e+06	B7
0.47	13.8	3.6e+06	B8
0.55	53.6	4e+06	B9
0.98	54	3.18e+07	B10
5.04	467	2.5e+07	B11
1.42	69.6	2.4e+06	B12
2.18	87.8	2.3e+06	B13
1.91	86.7	1.26e+07	B14
1.65	1.07	9.5e+06	B15
6.24	700	1.13e+07	B16
2.57	137	1.13e+07	B17
4.23	742	7.8e+06	B18
3.01	93.8	7.6e+06	B19

Target: T1, Human CD137 on Jurkat cells
Assay: cell-based or functional assay
Remark: another data set of the same source

Average EC50; Jurkat-CD137 NFkB-luciferase, HT1080-FAP co-culture [nM]	Average EC90; Jurkat-CD137 NFkB-luciferase, HT1080-FAP co-culture [nM]	Average IC50; Jurkat-CD137 NFkB-luciferase, HT1080-FAP co-culture [nM]	Average IC90; Jurkat-CD137 NFkB-luciferase, HT1080-FAP co-culture [nM]	Ratio IC50/EC50; Jurkat-CD137 NFkB-luciferase, HT1080-FAP co-culture	Ratio IC90/EC90; Jurkat-CD137 NFkB-luciferase, HT1080-FAP co-culture	Binder
0.273	0.738	888	84	3260	114	B2
0.248	1.51	747	79.2	3010	52.3	B3
0.115	0.644	319	69.2	2790	107	B4
0.16	0.883	444	86.7	2780	98.1	B5
0.09	0.671	347	52.8	3840	78.6	B6
0.141	1.43	756	165	5370	115	B7
0.054	0.315	191	13.8	3520	43.8	B8
0.153	1.07	314	105	2060	98.1	B9
0.166	1.43	624	84.6	3750	59.4	B10
0.327	2.59	958	210	2930	81.2	B11
0.082	0.613	361	48.4	4380	79.1	B20
